Here are results for 94 variants from the supplement of paper PMC10567573.

B1: ZNF263 (parent)
chain: KPYKCTLCGENFSHRSNLIRHQRI
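Note: lentivirally expressed fusions sorted by FACS into six bins by GFP to DsRed ratio, PSI derived from sequencing read proportions per bin multiplied by bin number.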

Variants of B1 are the subject of this series. Kind of series: protein stability index of a GFP-peptide fusion (GPS, HEK-293T) (PSI 1-6); higher = more stable. To be noted: c terminus: a fixed tail appended.
For the variant KPYKCTLCGENFSHRSNLIRHQWI, the protein stability index was 1.65. As for KPYKCTLCGENFSHRSNLIRHQQI, the protein stability index turned out to be 2.34. In the case of KPYKCTLCGENFSHRSNLIRHQMI, the protein stability index came to 2.88. For KPYKCTLPGENFSHRSNLIRHQRI, the protein stability index turned out to be 2.45.

In the case of KPYKCTLYGENFSHRSNLIRHQRI, the protein stability index was 2.41. Regarding KPYKCTLHGENFSHRSNLIRHQRI, the protein stability index was 2.1. For the variant KPYKCTLWGENFSHRSNLIRHQRI, the protein stability index is 1.88. Consider KPYKCTLRGENFSHRSNLIRHQRI, for which the protein stability index is 1.73. KPYKCTLEGENFSHRSNLIRHQRI: the protein stability index came out at 2.48.

For KPYKCTLCGENFSHRSNLIRWQRI, the protein stability index came out at 3.53. Regarding KPYKCTLCGENFSHRSNLIRRQRI, the protein stability index stood at 1.78. As to KPYKCTLCGENFSHRSNLIRQQRI, the protein stability index was found to be 1.14. Consider KPYKCTLCGENFSHRSNLIREQRI, for which the protein stability index amounted to 2.58. Take KPYKCTLCGENFSHRSNLIRSQRI: the protein stability index is 1.89. To KPYKCTLCGENFSHRSNLIRDQRI belongs 2.29. In the case of KPYKCTLCGLNFSHRSNLIRHQRI, the protein stability index is 1.88.

For KWYKCTLCGENFSHRSNLIRHQRI, the protein stability index worked out at 2.05. Turning to KDYKCTLCGENFSHRSNLIRHQRI, the protein stability index turned out to be 2.3. With KEYKCTLCGENFSHRSNLIRHQRI, the protein stability index was 2.67. Take KIYKCTLCGENFSHRSNLIRHQRI: the protein stability index came to 2.33. On to KPYKCTLCGENFSHRSNLDRHQRI, for which the protein stability index amounted to 2.74. In the case of KPYKCTLCGENFSHRSNLWRHQRI, the protein stability index is 1.5. Next, KPYKCTLCGENFSHRSNLMRHQRI: 2.62; KPYKCTLCGENFSHRSNLVRHQRI: 2.54. For KPYKCTLCGENFSARSNLIRHQRI, the protein stability index came out at 2.56. In the case of KPYKCTLCGENFSKRSNLIRHQRI, the protein stability index was determined as 2.81.

On to KPYKCTLCGENFSWRSNLIRHQRI, for which the protein stability index worked out at 1.43.

Turning to KPYKCTLCGENFSHRSNLIRHQRA, the protein stability index stood at 2.81. Turning to KPYKCTLCGENFSHRSNLIRHQRQ, the protein stability index came to 4.56.

KPYKCTLCGENFSHRSNLIRHQRC: the protein stability index was determined as 3.76. Turning to KPYKCTLCGENISHRSNLIRHQRI, the protein stability index is 2.41.

For the variant KPYKCTLCGENYSHRSNLIRHQRI, the protein stability index was 1.44. As to KPYKCTLCGENHSHRSNLIRHQRI, the protein stability index stood at 2.65. Regarding KPYKCTLCGENNSHRSNLIRHQRI, the protein stability index is 1.96. On to KPYKCTLCGENGSHRSNLIRHQRI, for which the protein stability index worked out at 1.8. Turning to KPYKCTLCGENLSHRSNLIRHQRI, the protein stability index worked out at 2.1.

Consider KPYKCTLCGEWFSHRSNLIRHQRI, for which the protein stability index turned out to be 2.25. For KPYKCTLCGEVFSHRSNLIRHQRI, the protein stability index amounted to 2.83. KPYKCTLCGELFSHRSNLIRHQRI: the protein stability index came out at 2.69. On to KPYKCTLCGETFSHRSNLIRHQRI, for which the protein stability index came out at 3.59. As for KPYKCALCGENFSHRSNLIRHQRI, the protein stability index came to 2.43.

With KPYKCRLCGENFSHRSNLIRHQRI, the protein stability index amounted to 2.96. For the variant KPYKCMLCGENFSHRSNLIRHQRI, the protein stability index worked out at 2.08. In the case of KPYKCWLCGENFSHRSNLIRHQRI, the protein stability index was found to be 2.53. To KPYKCGLCGENFSHRSNLIRHQRI belongs 2.67; to KPYKCTLCSENFSHRSNLIRHQRI, 2.38; to KPYKCTLCMENFSHRSNLIRHQRI, 2.38.

KPYKCTLCFENFSHRSNLIRHQRI: the protein stability index came to 2.43. Turning to KPYKLTLCGENFSHRSNLIRHQRI, the protein stability index stood at 2.47. Next, KPYKYTLCGENFSHRSNLIRHQRI: 1.96; KPYKGTLCGENFSHRSNLIRHQRI: 2.22. For KPYKMTLCGENFSHRSNLIRHQRI, the protein stability index worked out at 1.67. Turning to KPYKFTLCGENFSHRSNLIRHQRI, the protein stability index worked out at 1.45. To KPYKCTLCGENFEHRSNLIRHQRI belongs 2.52. With KPYKCTLCGENFSHRSNLIRHARI, the protein stability index is 2.49. Turning to KPYKCTLCGENFSHRSNLIRHPRI, the protein stability index came to 1.39.

Consider KPYKCTLCGENFSHRSNLIRHNRI, for which the protein stability index was 2.61. As for KPYKCTLCGENFSHRSNLIRHHRI, the protein stability index was found to be 3.09. As for KPYKCTLCGENFSHRSNLIRHFRI, the protein stability index is 2.35. Regarding KPYKCTLCGENFSHRSNLIIHQRI, the protein stability index is 1.81. For KPYKCTLCGENFSHRSNLILHQRI, the protein stability index was 2.15. To KPYKCTLCGENFSHRSNLIKHQRI belongs 2.67; to KPYKCTLCGENFSHRSNLIHHQRI, 1.76. For KPYKCTLCGENFSHRSNLIGHQRI, the protein stability index was determined as 2.37. For KPYGCTLCGENFSHRSNLIRHQRI, the protein stability index is 2.35. Regarding KPYKCTLCGENFSHRSNPIRHQRI, the protein stability index was 1.88. Next, KPYKCTLCGENFSHRSNVIRHQRI: 2.59; KPYKCTLCGENFSHRSNIIRHQRI: 1.95; YPYKCTLCGENFSHRSNLIRHQRI: 2.69. RPYKCTLCGENFSHRSNLIRHQRI: the protein stability index was 2.66. To EPYKCTLCGENFSHRSNLIRHQRI belongs 3.25; to FPYKCTLCGENFSHRSNLIRHQRI, 2.56; to KPYKCTLCGENFSHLSNLIRHQRI, 2.45. With KPYKCTLCGENFSHKSNLIRHQRI, the protein stability index was 2.28. KPYKCTLCGENFSHWSNLIRHQRI: the protein stability index is 2.54. Next, KPYKCTLCGENFSHHSNLIRHQRI: 2.15; KPYKCTLCGENFSHDSNLIRHQRI: 1.55; KPYKCTLCGENFSHTSNLIRHQRI: 1.59. Turning to KPYKCTLCGENFSHRFNLIRHQRI, the protein stability index was 2.02.

For KPYKCTLCGENFSHRMNLIRHQRI, the protein stability index was 2.26. As for KPYKCTLCGENFSHRLNLIRHQRI, the protein stability index was 2.88. In the case of KPYKCTLCGENFSHRANLIRHQRI, the protein stability index was found to be 2.04. On to KPYKCTLCGENFSHRHNLIRHQRI, for which the protein stability index came to 2.76. On to KPYKCTLCGENFSHRVNLIRHQRI, for which the protein stability index was found to be 1.87. As for KPIKCTLCGENFSHRSNLIRHQRI, the protein stability index came to 1.55.

For the variant KPLKCTLCGENFSHRSNLIRHQRI, the protein stability index turned out to be 2.64. Next, KPMKCTLCGENFSHRSNLIRHQRI: 1.73; KPYKCTYCGENFSHRSNLIRHQRI: 3.25. To KPYKCTNCGENFSHRSNLIRHQRI belongs 2.78. Turning to KPYKCTACGENFSHRSNLIRHQRI, the protein stability index was determined as 3.07. Next, KPYKCTKCGENFSHRSNLIRHQRI: 3.22. On to KPYKCTRCGENFSHRSNLIRHQRI, for which the protein stability index is 2.28. To KPYKCTTCGENFSHRSNLIRHQRI belongs 2.51; to KPYKCTHCGENFSHRSNLIRHQRI, 3.88.
